Experiment [1] concerns the target T1, human LAG-3 overexpressed on HEK293 cells (human, UniProt P18627 23-525).
T1 construct: whole, on cells; also called 293-hLAG-3 cells; hLAG-3 on the cell surface
T1 sequence (looked up): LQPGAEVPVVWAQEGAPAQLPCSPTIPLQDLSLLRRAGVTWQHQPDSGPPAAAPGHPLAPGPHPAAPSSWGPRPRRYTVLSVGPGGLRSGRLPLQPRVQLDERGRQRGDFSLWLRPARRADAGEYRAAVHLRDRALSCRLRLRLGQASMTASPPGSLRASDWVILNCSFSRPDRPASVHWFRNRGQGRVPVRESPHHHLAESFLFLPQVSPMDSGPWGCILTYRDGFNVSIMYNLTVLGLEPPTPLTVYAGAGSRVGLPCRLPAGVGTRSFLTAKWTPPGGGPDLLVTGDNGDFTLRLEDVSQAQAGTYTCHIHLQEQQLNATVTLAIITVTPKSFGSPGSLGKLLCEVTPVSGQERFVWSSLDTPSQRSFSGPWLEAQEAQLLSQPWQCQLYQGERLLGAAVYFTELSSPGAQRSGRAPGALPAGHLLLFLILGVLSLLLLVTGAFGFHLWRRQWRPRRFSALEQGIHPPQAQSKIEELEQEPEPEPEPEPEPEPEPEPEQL
As to the kind of experiment: flow cytometry on 293-hLAG-3 cells, MFI curve. The procedure:
The binding of the 4 exemplary antibodies of the invention described above to human LAG-3 was measured in a flow cytometry-based assay. 293 cells (293-hLAG-3 cells) over-expressing human LAG-3 were generated by transfecting human embryonic kidney 293 cells (Invitrogen) with pCHO1.0 vectors (Invitrogen) carrying human LAG-3 cDNA (Sino Biological) cloned into multiple cloning sites (MCSs). 293-hLAG-3 cells (0.2×10⁶ cells) were mixed with different concentrations of antibodies (ADI-26789, ADI-26869 and reference 25F7) prepared as described above (the antibodies were serially three-fold diluted from a maximum concentration of 500 nM in PBS containing 0.1% bovine serum albumin (BSA) until the 8th concentration). The cells were incubated on ice for 30 min. The cells were then washed at least twice prior to addition of a secondary antibody (a PE-labeled goat anti-human IgG antibody, Southern Biotech, final concentration […]) diluted in 1:100, and incubated on ice (protected from light) for 30 minutes. The cells were washed at least twice and analyzed by flow cytometry. The flow cytometry assay was performed on an Accuri C6 system (BD Biosciences), and a concentration-dependent curve was fitted with GraphPad according to the mean fluorescence intensity (MFI).

For experiment [2], the target named is T2, human LAG-3-His (human, UniProt P18627 23-450).
T2 construct: Bought antigen (ArcoBiosystems), 100 nM in solution in the ForteBio assay; also called human LAG-3 antigen (ArcoBiosystems); hLAG-3; not shown: His tag
T2 sequence (looked up): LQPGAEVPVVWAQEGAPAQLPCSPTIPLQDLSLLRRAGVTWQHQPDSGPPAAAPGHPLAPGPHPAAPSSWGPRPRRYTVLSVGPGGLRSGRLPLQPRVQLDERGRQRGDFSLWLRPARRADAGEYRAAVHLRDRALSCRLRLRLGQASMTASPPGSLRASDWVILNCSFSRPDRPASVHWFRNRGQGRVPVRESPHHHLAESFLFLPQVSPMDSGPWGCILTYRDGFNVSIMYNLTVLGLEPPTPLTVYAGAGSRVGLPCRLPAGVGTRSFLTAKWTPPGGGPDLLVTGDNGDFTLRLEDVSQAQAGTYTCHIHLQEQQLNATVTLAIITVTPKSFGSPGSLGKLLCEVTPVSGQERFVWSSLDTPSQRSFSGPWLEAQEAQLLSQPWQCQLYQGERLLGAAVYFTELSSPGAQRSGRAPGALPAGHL
As to the kind of experiment: BLI (ForteBio), antibody on AHQ tip, human LAG-3-His 100 nM in solution. The procedure: (§1) The purified antibody obtained as described above was loaded on-line onto an AHQ sensor (ForteBio) for ForteBio affinity assay. The sensor with the loaded antibody was then exposed to 100 nM of a human LAG-3 antigen (ArcoBiosystems) for 5 minutes before transferring the sensor to the assay buffer for dissociation for 5 minutes for dissociation rate measurement. Kinetic analysis was performed using a 1:1 binding model.

The target of experiment [3] is T2, human LAG-3-His. As to the kind of experiment: BLI (ForteBio), antibody on AHQ tip, human LAG-3-His 100 nM in solution, univalent. The procedure: as §1
In experiment [4] the target is T3, human PD-L1 (human, UniProt Q9NZQ7 19-238).
T3 construct: Bought antigen; also called human PD-L1 antigen (Acrobiosystems)
As to the kind of experiment: BLI (ForteBio), antibody loaded on sensor, human PD-L1 in solution. As for the experimental part: The equilibrium dissociation constant (KD) for binding of the anti-PD-L1 antibody (HZ3266-IgG1N297A) to human PD-L1 was determined by biological optical interferometry (ForteBio). A ForteBio affinity assay of prior art was performed (Estep, P., et al, High throughput solution based measurement of antibody-antigen affinity and epitope binning. MAbs, 2013.5(2):270-8).
SD buffer, antibodies, and antigens (including human PD-L1, all purchased from Acrobiosystems) each of 100 μL were added to 96-well black polystyrene half area microplates (Greiner, 675076). The sensors were arranged according to the positions of the samples. The instrument settings were as follows: the operation procedures were Baseline, Loading ˜1 nm, Baseline, Association, and Dissociation. The run time of each procedure was dependent on the rates of association and dissociation. The rotation speed was 400 rpm, and the temperature was 30° C. The KD values were analyzed by ForteBio analysis software.

In experiment [5] the target is T4, mouse LAG-3 overexpressed on CHO cells (mouse, UniProt Q61790 24-521).
T4 construct: whole, on cells; also called CHO-mLAG-3 cells; mouse LAG-3 on the cell surface
T4 sequence (looked up): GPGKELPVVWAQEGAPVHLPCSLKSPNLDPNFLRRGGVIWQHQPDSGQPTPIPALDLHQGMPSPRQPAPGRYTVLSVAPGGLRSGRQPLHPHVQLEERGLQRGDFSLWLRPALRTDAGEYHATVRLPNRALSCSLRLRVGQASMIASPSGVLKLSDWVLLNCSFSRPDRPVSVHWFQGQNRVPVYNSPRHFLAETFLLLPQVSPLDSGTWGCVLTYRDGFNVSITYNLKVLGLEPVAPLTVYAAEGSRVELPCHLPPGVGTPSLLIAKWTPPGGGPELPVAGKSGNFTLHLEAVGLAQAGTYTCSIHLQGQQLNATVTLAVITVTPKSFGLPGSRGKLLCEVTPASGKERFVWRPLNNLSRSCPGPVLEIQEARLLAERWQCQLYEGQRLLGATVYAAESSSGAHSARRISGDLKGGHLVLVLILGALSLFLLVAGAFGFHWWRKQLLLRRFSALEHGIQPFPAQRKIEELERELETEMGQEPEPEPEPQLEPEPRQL
Briefly: flow cytometry (MFI) on CHO cells overexpressing mouse LAG-3; fit value from the EC50 table on the sheet for a flat curve (see non_binding); table has no unit of its own (concentration axis in nM).

T3 sequence (Q9NZQ7 19-238 limits assumed): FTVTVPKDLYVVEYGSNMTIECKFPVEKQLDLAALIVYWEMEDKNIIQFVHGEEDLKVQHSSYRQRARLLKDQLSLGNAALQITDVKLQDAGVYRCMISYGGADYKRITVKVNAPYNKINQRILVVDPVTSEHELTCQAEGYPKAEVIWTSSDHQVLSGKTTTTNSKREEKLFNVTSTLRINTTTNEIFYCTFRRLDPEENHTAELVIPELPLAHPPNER

B1: ADI-26869 (antibody, human IgG4 S228P, kappa, F234A L235A, V domains shown)
VH: QLQLQESGPGLVKPSETLSLTCTVSGGSISSSDYYWGWIRQPPGKGLEWIGSIYYSGSTYYNPSLKSRVTISVDTSKNQFSLKLSSVTAADTAVYYCARVRTWDAAFDIWGQGTMVTVSS
VL: DIQMTQSPSSLSASVGDRVTITCQASQDISNYLNWYQQKPGKAPKLLIYDASNLETGVPSRFSGSGSGTDFTFTISSLQPEDIATYYCQQVHALPPWTFGGGTKVEIKR
notes: Fully human antibody from yeast display; IgG4 heavy chain constant region with kappa light chain; expressed in HEK293 cells; also called anti-human LAG-3 antibody ADI-26869; parent antibody
B1: a half-maximal effect in experiment [1] (EC50) was put at 2.91 nM. Also, in experiment [2], the koff was found to be 0.00385 s⁻¹ and the kon is 488000 M⁻¹ s⁻¹. The same molecule gave a dissociation constant (Kd) in experiment [3] of 7.88 nM.

B2: HZ3266-IgG1N297A (antibody, V domains shown)
VH: EVQLVQSGAEVKKPGATVKISCTASGFNIEDTYIHWVQQAPGQGLEWIGRIDPANDDTKYAPKFQGRATITADTSTDTAYMELSSLRSEDTAVYYCGRGLGRWFAYWGQGTLVTVSS
VL: GIVMTQSPDSLAVSLGERATINCKASQDVINAVAWYQQKPGQSPKLLIYSASNRYTGVPDRFSGSGSGTDFTLTISSLQAEDLAVYYCQQHYSPPLTFGGGTKVEIKR
notes: also called anti-PD-L1 antibody (HZ3266-IgG1N297A)
Take B2: the affinity in experiment [4], expressed as Kd, was 0.724 nM.

B3: 25F7 (antibody, V domains shown)
VH: QVQLQQWGAGLLKPSETLSLTCAVYGGSFSDYYWNWIRQPPGKGLEWIGEINHNGNTNSNPSLKSRVTLSLDTSKNQFSLKLRSVTAADTAVYYCAFGYSDYEYNWFDPWGQGTLVTVSS
VL: EIVLTQSPATLSLSPGERATLSCRASQSISSYLAWYQQKPGQAPRLLIYDASNRATGIPARFSGSGSGTDFTLTISSLEPEDFAVYYCQQRSNWPLTFGQGTNLEIK
For B3, the EC50 in experiment [5] was found to be 0.857 nM.

B4: ADI-26789 (antibody, human IgG4 S228P, kappa, F234A L235A, V domains shown)
VH: EVQLVESGGGLVQPGRSLRLSCAASGFTFDDYAMHWVRQAPGKGLEWVSGISWNSGDIGYADSVKGRFTISRDNAKNSLYLQMNSLRAEDTALYYCAKGGYDGSYYGMDVWGQGTTVTVSS
VL: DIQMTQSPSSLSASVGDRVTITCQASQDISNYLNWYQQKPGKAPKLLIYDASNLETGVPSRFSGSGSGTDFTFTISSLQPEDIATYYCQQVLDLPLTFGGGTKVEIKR
notes: Fully human antibody from yeast display; IgG4 heavy chain constant region with kappa light chain; also called anti-human LAG-3 antibody ADI-26789; parent antibody
For B4, the EC50 in experiment [1] turned out to be 2.14 nM. In addition, in experiment [2], the koff stood at 0.00389 s⁻¹ and the kon was found to be 212000 M⁻¹ s⁻¹. The molecule further yielded a Kd in experiment [3] of 18.3 nM.

B5: BAP050 (antibody, V domains shown)
VH: QIQLVQSGPELKKPGETVKISCKASGFTLTNYGMNWVRQTPGKGLKWMGWINTDTGEPTYADDFKGRFAFSLETSASTASLQINNLKNADTATYFCARNPPYYYGTNNAEAMDYWGQGTAVTVSS
VL: DIQMTQTTSSLSASLGDRVTISCSSSQDISNYLNWYQQKPDGTVKVLIYYTSTLHLGVPSRFSGSGSGTDYSLTISNLELEDIATYYCQQYYNLPWTFGGGTKLEIK
Take B5: the EC50 in experiment [1] is 1.41 nM; in experiment [5], about 0.7 nM. Moreover, the off-rate constant (koff) in experiment [2] was found to be 0.0002 s⁻¹. In experiment [2], the kon came out at 237000 M⁻¹ s⁻¹. In experiment [3], this molecule came in with a dissociation constant Kd of 0.844 nM.

The record behind these values is patent US20210371529A1 (Innovent, published 2021).
